Tests used:
AncSZ = assay: phosphorylation enrichment, bacterial display (enrichment ratio); higher = better substrate or ligand; peptides without Tyr show the background
Hck = Hck (UniProt P08631); assay: as above
MERTK = MERTK (UniProt Q12866); assay: as above
EPHB2 = EPHB2 (UniProt P29323); assay: as above
Fyn = Fyn (UniProt P06241); assay: as above
FGFR1 = FGFR1 (UniProt P11362); assay: as above
Fes = Fes (UniProt P07332); assay: as above
c-Src = assay: as above
Jak2 = Jak2 (UniProt O60674); assay: as above
c-Abl (mouse) = assay: as above
FGFR3 = FGFR3 (UniProt P22607); assay: as above
Fer (mouse) = assay: as above
EPHB1 = EPHB1 (UniProt P54762); assay: as above
SHP2-C SH2 = assay: SH2 binding enrichment of the phosphorylated peptide, bacterial display (enrichment ratio); higher = better substrate or ligand; peptides without Tyr show the background
c-Src SH2 = assay: as above
Grb2 SH2 = Grb2 SH2 (UniProt P62993); assay: as above
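Throughout, for SH2 binding enrichment of the phosphorylated peptide, bacterial display: peptide library displayed on the E. coli surface as eCPX fusions, selected cells deep-sequenced, score is each peptide's frequency after selection divided by its frequency in the input.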
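Throughout, for phosphorylation enrichment, bacterial display: 11-residue human phosphosite peptides and single-mutation variants displayed on the E. coli surface, counted by deep sequencing, each peptide's frequency after selection divided by its frequency in the unselected input library; frequency after pTyr selection over input frequency; kinase dosed for 20-30% of maximal phosphorylation in three min.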

Chain of Jak2 (O60674 whole entry, looked up): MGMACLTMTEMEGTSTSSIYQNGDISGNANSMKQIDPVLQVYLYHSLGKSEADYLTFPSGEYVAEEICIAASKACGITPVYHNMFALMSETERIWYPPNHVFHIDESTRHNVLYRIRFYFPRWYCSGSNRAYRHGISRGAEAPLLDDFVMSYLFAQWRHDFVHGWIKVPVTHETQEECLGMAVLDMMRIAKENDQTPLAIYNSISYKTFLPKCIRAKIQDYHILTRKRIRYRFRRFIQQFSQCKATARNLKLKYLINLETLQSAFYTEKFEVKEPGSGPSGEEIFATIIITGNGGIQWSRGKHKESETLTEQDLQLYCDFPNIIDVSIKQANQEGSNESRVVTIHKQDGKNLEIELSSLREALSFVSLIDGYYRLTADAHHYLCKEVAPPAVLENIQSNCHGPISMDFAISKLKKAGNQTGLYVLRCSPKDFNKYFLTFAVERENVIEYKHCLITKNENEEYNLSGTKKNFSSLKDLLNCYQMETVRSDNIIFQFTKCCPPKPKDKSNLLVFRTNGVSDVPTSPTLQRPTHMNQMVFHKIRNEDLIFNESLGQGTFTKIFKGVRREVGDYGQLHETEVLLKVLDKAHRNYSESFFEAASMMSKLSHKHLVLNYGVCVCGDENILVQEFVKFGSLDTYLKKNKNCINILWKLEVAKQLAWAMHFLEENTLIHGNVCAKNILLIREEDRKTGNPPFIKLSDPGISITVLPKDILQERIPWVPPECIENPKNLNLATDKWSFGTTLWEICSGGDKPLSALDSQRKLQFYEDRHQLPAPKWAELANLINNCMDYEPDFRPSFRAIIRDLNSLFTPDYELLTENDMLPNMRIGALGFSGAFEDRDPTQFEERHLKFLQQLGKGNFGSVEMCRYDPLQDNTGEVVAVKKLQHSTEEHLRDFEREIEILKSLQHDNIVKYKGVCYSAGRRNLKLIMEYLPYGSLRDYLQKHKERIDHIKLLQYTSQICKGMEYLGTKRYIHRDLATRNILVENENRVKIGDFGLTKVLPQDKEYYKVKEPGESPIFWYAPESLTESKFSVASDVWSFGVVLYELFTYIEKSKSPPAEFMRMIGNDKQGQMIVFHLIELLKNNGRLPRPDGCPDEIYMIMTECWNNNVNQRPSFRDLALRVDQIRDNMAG
Chain of Grb2 SH2 (P62993 whole entry, looked up, the tested form may be a part): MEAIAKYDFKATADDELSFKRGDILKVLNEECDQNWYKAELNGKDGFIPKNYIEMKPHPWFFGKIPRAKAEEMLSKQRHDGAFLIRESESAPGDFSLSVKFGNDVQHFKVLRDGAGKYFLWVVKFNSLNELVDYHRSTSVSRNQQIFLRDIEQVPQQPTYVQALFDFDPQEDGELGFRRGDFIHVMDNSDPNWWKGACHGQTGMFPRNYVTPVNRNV
Chain of EPHB1 (P54762 whole entry, looked up): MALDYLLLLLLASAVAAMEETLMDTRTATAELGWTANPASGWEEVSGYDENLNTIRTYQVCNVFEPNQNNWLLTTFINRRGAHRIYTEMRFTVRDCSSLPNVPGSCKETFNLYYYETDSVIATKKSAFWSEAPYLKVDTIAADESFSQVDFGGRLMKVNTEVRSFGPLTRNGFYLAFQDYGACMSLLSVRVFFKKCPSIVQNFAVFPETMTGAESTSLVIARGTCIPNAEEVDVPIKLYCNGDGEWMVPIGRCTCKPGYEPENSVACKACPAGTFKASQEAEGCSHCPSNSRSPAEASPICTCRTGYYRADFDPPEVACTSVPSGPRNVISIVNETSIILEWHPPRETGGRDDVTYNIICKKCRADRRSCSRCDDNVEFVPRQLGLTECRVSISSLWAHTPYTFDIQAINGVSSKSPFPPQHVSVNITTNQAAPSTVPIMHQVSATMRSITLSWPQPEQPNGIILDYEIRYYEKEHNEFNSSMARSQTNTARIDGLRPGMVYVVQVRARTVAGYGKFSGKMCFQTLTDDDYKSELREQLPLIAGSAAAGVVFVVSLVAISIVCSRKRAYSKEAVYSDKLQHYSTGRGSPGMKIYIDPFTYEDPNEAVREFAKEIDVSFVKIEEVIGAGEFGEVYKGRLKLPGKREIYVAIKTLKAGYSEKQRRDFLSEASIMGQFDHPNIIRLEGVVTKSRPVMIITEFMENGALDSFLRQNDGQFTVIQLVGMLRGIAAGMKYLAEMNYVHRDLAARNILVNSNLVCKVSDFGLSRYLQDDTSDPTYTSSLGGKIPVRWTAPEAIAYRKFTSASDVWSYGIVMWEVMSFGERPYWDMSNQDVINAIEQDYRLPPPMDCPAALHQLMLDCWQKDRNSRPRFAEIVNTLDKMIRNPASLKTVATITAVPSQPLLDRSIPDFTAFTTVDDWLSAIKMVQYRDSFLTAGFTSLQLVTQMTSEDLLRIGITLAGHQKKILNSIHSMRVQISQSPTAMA
Chain of Hck (P08631 whole entry, looked up): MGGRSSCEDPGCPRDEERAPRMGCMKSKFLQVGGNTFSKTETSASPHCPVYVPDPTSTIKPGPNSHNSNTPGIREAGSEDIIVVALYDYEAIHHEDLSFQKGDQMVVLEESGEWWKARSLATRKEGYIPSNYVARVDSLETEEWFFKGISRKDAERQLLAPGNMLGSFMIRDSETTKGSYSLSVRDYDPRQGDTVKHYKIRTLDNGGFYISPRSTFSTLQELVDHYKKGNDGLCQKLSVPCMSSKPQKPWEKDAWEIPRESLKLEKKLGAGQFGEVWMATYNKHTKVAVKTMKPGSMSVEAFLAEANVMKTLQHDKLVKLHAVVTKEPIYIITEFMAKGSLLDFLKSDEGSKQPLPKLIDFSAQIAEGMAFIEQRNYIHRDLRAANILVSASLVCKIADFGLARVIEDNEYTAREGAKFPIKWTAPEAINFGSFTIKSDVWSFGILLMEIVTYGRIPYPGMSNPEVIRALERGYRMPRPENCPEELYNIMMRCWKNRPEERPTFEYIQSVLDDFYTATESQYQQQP
Chain of Fes (P07332 whole entry, looked up): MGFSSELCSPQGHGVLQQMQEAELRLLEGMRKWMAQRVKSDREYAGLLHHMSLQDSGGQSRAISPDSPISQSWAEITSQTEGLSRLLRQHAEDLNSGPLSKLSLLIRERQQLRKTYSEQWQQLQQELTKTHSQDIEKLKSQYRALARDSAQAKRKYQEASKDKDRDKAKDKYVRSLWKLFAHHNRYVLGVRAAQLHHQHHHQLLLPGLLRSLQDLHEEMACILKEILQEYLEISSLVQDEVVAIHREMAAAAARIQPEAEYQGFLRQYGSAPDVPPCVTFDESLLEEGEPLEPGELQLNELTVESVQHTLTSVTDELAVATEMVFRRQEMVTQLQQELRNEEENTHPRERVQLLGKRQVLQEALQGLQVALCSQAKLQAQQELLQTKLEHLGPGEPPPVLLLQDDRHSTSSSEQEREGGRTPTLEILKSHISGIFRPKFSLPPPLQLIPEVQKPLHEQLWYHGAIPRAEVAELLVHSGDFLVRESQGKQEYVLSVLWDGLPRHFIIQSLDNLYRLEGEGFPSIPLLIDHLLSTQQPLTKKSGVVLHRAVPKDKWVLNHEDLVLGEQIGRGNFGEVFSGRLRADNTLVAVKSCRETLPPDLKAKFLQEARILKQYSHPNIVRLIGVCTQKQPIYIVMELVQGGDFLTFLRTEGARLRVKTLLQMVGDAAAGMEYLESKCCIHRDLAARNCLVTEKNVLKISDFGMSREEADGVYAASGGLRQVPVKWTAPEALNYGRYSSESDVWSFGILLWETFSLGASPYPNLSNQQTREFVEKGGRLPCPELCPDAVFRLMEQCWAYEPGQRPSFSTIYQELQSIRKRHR
Chain of Fyn (P06241 whole entry, looked up): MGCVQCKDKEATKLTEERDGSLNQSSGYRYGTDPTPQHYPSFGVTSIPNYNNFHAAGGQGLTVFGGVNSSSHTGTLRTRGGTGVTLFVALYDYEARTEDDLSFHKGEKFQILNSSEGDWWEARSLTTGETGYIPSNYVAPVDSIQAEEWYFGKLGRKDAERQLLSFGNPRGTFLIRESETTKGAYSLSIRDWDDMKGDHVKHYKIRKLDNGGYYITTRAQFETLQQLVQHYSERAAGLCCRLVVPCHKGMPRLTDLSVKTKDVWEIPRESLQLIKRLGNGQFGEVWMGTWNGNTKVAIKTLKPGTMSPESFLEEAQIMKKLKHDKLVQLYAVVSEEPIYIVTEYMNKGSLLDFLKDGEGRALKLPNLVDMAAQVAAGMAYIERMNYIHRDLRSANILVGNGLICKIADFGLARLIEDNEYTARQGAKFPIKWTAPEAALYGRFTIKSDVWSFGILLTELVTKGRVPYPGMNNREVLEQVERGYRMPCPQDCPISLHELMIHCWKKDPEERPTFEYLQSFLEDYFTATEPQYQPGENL
Chain of FGFR3 (P22607 whole entry, looked up): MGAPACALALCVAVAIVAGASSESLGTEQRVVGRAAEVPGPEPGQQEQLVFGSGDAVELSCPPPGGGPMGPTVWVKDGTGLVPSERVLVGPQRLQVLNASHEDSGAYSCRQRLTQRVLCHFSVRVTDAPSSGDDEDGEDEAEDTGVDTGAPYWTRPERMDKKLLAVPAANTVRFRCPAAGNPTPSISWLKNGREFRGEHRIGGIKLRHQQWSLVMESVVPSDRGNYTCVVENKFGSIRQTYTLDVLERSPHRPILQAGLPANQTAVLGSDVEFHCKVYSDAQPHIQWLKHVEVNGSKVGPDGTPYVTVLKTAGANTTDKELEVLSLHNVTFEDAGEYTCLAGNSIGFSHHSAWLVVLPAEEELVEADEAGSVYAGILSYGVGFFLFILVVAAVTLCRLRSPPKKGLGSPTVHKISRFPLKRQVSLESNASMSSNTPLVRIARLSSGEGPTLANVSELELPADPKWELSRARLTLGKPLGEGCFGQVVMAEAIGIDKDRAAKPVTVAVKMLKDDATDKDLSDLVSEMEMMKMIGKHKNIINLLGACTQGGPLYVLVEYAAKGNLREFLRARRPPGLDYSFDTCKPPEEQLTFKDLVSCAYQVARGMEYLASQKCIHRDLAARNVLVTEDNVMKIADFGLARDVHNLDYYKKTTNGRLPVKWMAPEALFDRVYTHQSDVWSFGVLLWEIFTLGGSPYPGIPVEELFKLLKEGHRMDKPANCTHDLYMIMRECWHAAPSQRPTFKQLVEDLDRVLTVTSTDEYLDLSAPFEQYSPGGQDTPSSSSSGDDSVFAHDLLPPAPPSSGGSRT

Row | Sequence | phosphorylation enrichment (AncSZ) | phosphorylation enrichment (Hck) | phosphorylation enrichment (MERTK) | phosphorylation enrichment (EPHB2) | phosphorylation enrichment (Fyn) | phosphorylation enrichment (FGFR1) | phosphorylation enrichment (Fes) | phosphorylation enrichment (c-Src) | phosphorylation enrichment (Jak2) | phosphorylation enrichment (c-Abl (mouse)) | phosphorylation enrichment (FGFR3) | phosphorylation enrichment (Fer (mouse)) | phosphorylation enrichment (EPHB1) | SH2 binding enrichment (SHP2-C SH2) | SH2 binding enrichment (c-Src SH2) | SH2 binding enrichment (Grb2 SH2)
1 | DFTEAYNPKIK [CLK1_Y305_YF] | 0.874 | 0.505 | 0.501 | 0.572 | 0.453 | 0.464 | 1.11 | 0.571 | 0.988 | 0.893 | 0.649 | 0.466 | 0.509 | 1.11 | 0.533 | 0.947
2 | ALVFLYFCIIF [SIGLEC12_Y494] | 1.04 | 0.964 | 0.636 | 0.483 | 0.552 | 0.58 | 1.16 | 0.741 | 1.01 | 0.957 | 0.803 | 0.6 | 0.397 | 1.48 | 1.36 | 1.91
3 | MSYDRYMAVCH [OR2A5_Y123_I126V] | 0.867 | 0.507 | 0.44 | 0.751 | 0.475 | 0.438 | 0.878 | 0.464 | 0.891 | 0.509 | 0.57 | 0.595 | 0.879 | 0.687 | 0.993 | 0.779
4 | AVEDQYYCVDC [FHL1_Y207] | 2.07 | 0.796 | 0.72 | 0.598 | 0.853 | 5.7 | 1.3 | 1.97 | 1.39 | 0.786 | 4.65 | 0.684 | 0.53 | 0.748 | 1.08 | 0.877
5 | SILAVYSKDIF [PANK2_Y400_N404I_YF] | 0.691 | 0.765 | 2.99 | 0.494 | 1.11 | 0.445 | 0.663 | 1.62 | 0.688 | 0.578 | 0.537 | 0.46 | 0.477 | 0.678 | 0.764 | 1.02
6 | DLWEKYMDCGG [HAP1_Y440_R437W] | 1.44 | 0.596 | 0.458 | 0.775 | 0.509 | 0.6 | 1.42 | 0.436 | 1.12 | 0.738 | 0.854 | 0.578 | 0.976 | 0.617 | 0.55 | 0.768
7 | NLSVHYDSSLK [ABCC8_Y1353_R1352H] | 0.952 | 0.453 | 0.339 | 0.82 | 0.424 | 0.522 | 0.922 | 0.342 | 0.612 | 0.548 | 0.603 | 0.437 | 0.579 | 0.547 | 0.509 | 0.793
8 | DCAAIYGSEPE [AKR1A1_Y50_N52S] | 1.14 | 0.844 | 0.474 | 0.578 | 0.968 | 0.453 | 1.34 | 1.4 | 1.46 | 0.791 | 0.726 | 0.599 | 0.572 | 0.553 | 0.633 | 0.927
9 | DNQYAYLKAII [HNF4A_Y288_E285Q] | 1.19 | 1.4 | 1.58 | 0.549 | 0.456 | 2.72 | 1.09 | 0.551 | 1.11 | 3.75 | 1.91 | 0.64 | 0.562 | 0.826 | 0.531 | 0.769
10 | TYACSYTPVKA [FLNB_Y708] | 0.991 | 1.32 | 3.02 | 0.868 | 1.25 | 0.877 | 1.06 | 2.4 | 1.24 | 1.78 | 0.627 | 0.78 | 0.567 | 7.09 | 1.54 | 0.85
11 | SPLEVYVDKSQ [FLNA_Y373_F370L] | 1.2 | 0.523 | 0.47 | 0.716 | 0.469 | 0.631 | 1.25 | 0.508 | 1.14 | 0.723 | 0.74 | 0.521 | 0.653 | 0.585 | 0.477 | 0.859
12 | KRAAIYNPVIY [RHO_Y301_S297R] | 0.547 | 4.27 | 1.06 | 0.415 | 2.33 | 0.577 | 0.556 | 2.67 | 0.424 | 0.469 | 0.443 | 5.24 | 0.398 | 0.645 | 0.629 | 0.968
13 | RYVVLYDAELT [ERCC4_Y581] | 1.3 | 0.66 | 1.98 | 1.96 | 0.657 | 0.736 | 1.49 | 0.605 | 1.24 | 0.817 | 1.04 | 0.629 | 2.77 | 7.24 | 6.75 | 1.47
14 | RAMPVYKEAEH [TP63_Y231_K233E] | 1.02 | 0.664 | 0.503 | 0.67 | 0.511 | 0.763 | 1.01 | 0.563 | 0.832 | 0.665 | 0.663 | 0.602 | 0.561 | 0.58 | 0.508 | 0.98
15 | AIDVGYRHIDC [AKR1B1_Y40] | 0.637 | 0.457 | 0.366 | 0.531 | 0.466 | 0.476 | 0.844 | 0.411 | 0.635 | 0.629 | 0.622 | 0.44 | 0.419 | 1.12 | 0.98 | 1.04
16 | LSVEIYDRREY [ITGB7_Y753] | 1.52 | 2.23 | 0.581 | 0.816 | 0.675 | 0.618 | 1.4 | 0.765 | 0.965 | 0.801 | 0.869 | 0.587 | 0.669 | 0.437 | 0.523 | 0.602
17 | AVDVTYDGHPV [FLNB_Y1020] | 1.11 | 2.78 | 0.429 | 3.74 | 2.3 | 0.497 | 0.982 | 2.55 | 0.724 | 0.705 | 0.63 | 0.925 | 1.09 | 0.476 | 0.444 | 0.803
